Measured values reported in paper PMC9482650, “Quantitative fragmentomics allow affinity mapping of interactomes” (Nature Communications, 2022).

Columns and labels:
Test in all cases: holdup assay
Parameters in all cases: key: below the threshold = too weak to quantify, mostly under pKd 3.1 to 4
PTPN3, P26045 = target: PTPN3, P26045
GRIP2_4, Q9C0E4 = target: GRIP2_4, Q9C0E4
MAGI2_5, Q86UL8 = target: MAGI2_5, Q86UL8
SNTG1, Q9NSN8 = target: T1, SNTG1, Q9NSN8
T1 sequence (Q9NSN8 52-150, limits assumed, looked up): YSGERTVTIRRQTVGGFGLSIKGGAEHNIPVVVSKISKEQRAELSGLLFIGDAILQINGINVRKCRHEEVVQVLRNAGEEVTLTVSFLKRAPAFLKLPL

NHERF3_3, Q5T2W1 = target: T2, NHERF3_3, Q5T2W1
T2 sequence (Q5T2W1 238-333, limits assumed, looked up): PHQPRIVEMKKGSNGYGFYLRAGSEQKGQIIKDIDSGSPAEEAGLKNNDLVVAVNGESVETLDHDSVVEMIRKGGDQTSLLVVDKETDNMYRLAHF

NHERF3_4, Q5T2W1 = target: T3, NHERF3_4, Q5T2W1
T3 sequence (Q5T2W1 373-468, limits assumed, looked up): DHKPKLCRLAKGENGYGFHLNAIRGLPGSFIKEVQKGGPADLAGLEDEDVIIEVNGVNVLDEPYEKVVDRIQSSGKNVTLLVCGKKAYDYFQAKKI

Inadl_6, Q8NI35 = target: Inadl_6, Q8NI35
FRMPD1, Q5SYB0 = target: T4, FRMPD1, Q5SYB0
T4 sequence (Q5SYB0 52-145, limits assumed, looked up): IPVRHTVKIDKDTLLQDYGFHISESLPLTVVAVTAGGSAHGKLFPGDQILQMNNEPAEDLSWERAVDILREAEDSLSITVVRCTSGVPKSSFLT

ARHGEF12, Q9NZN5-2 = target: ARHGEF12, Q9NZN5-2
LNX1_3, Q8TBB1 = target: LNX1_3, Q8TBB1
DLG1_3, Q12959 = target: DLG1_3, Q12959
MAGI2_3, Q86UL8 = target: MAGI2_3, Q86UL8
GIPC2, Q8TF65 = target: GIPC2, Q8TF65
PICK1, Q9NRD5 = target: PICK1, Q9NRD5
PDZD2_2, O15018 = target: T5, PDZD2_2, O15018
T5 sequence (O15018 329-429, limits assumed, looked up): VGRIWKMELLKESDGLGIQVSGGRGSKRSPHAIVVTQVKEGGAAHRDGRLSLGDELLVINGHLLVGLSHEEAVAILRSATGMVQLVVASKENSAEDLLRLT

MAGI2_4, Q86UL8 = target: MAGI2_4, Q86UL8
GRIP1_2, Q9Y3R0 = target: T6, GRIP1_2, Q9Y3R0
T6 sequence (Q9Y3R0 145-248, limits assumed, looked up): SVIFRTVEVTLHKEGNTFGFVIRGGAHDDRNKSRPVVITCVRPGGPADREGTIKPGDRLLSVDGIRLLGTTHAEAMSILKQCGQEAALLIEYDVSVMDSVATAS

HTRA4, P83105 = target: T7, HTRA4, P83105
T7 sequence (P83105 378-476, limits assumed, looked up): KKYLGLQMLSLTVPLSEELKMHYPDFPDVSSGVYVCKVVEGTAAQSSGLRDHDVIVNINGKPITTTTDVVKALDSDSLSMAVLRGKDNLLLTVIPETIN

SNTA1, Q13424 = target: T8, SNTA1, Q13424
T8 sequence (Q13424 82-180, limits assumed, looked up): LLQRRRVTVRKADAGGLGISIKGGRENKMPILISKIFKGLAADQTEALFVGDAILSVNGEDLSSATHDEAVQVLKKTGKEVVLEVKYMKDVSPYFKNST

TJP3_3, O95049 = target: T9, TJP3_3, O95049
T9 sequence (O95049 375-456, limits assumed, looked up): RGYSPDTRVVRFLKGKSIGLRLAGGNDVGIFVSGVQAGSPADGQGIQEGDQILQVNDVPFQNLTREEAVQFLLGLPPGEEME

Inadl_5, Q8NI35 = target: Inadl_5, Q8NI35
HTRA1, Q92743 = target: HTRA1, Q92743
CARD11, Q9BXL7 = target: T10, CARD11, Q9BXL7
T10 sequence (Q9BXL7 662-765, limits assumed, looked up): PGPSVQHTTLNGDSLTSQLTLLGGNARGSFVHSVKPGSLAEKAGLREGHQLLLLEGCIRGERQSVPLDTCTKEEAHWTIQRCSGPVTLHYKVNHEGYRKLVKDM

LDB3, O75112 = target: LDB3, O75112
SIPA1L2, Q9P2F8 = target: T11, SIPA1L2, Q9P2F8
T11 sequence (Q9P2F8 945-1036, limits assumed, looked up): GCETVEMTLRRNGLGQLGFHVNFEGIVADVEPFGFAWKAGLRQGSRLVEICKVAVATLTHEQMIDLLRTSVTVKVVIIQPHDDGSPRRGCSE

NHERF4_2, Q86UT5 = target: NHERF4_2, Q86UT5
SCRIB_2, Q14160 = target: SCRIB_2, Q14160
[1] = modified: phospho on T at position -2 from the C-terminal residue
[2] = plain residues with an end cap or a label only (N-terminal biotin on a linker: ado-ado)

SCRIB_2, Q14160, sequence (Q14160 857-960): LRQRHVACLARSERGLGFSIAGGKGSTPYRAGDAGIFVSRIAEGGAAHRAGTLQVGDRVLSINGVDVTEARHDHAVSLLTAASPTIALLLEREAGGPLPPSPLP
HTRA1, Q92743, sequence (Q92743 360-477): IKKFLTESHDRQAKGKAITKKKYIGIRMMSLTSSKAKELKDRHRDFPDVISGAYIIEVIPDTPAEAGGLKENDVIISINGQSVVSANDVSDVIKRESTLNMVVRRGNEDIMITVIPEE
MAGI2_4, Q86UL8, sequence (Q86UL8 772-865): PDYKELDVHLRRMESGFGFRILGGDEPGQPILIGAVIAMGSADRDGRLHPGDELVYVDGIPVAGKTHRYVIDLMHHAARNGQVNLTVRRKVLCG
ARHGEF12, Q9NZN5-2, sequence (Q9NZN5 other isoform, or with tags, fused parts or gaps): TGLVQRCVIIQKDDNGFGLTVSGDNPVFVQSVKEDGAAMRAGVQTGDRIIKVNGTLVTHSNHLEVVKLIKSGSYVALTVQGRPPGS
GIPC2, Q8TF65, sequence (Q8TF65 112-203): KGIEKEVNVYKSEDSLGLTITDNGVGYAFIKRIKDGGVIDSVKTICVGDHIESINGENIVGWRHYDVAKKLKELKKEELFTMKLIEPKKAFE
GRIP2_4, Q9C0E4, sequence (Q9C0E4 446-548): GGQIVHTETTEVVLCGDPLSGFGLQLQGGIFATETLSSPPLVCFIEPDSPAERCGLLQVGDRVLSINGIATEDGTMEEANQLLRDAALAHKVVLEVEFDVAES
PTPN3, P26045, sequence (P26045 505-587): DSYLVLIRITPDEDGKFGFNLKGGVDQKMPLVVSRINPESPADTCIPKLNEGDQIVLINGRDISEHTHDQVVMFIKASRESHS
LDB3, O75112, sequence (O75112 1-94): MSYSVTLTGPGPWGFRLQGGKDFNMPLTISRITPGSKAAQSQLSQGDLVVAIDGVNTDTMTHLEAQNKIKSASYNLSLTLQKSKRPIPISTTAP
NHERF4_2, Q86UT5, sequence (Q86UT5 220-308): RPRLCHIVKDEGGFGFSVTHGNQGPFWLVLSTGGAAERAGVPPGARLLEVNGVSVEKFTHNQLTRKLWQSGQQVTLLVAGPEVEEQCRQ
PICK1, Q9NRD5, sequence (Q9NRD5 17-115): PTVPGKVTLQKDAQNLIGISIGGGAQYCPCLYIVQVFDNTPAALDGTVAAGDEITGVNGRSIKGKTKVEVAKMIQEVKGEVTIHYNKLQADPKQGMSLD
Inadl_5, Q8NI35, sequence (Q8NI35 673-780): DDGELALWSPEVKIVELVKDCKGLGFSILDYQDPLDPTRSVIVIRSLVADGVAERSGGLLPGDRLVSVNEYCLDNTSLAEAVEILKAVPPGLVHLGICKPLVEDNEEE
MAGI2_5, Q86UL8, sequence (Q86UL8 915-1017): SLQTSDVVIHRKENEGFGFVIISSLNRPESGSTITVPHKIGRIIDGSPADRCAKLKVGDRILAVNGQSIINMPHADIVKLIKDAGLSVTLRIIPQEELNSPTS
DLG1_3, Q12959, sequence (Q12959 457-571): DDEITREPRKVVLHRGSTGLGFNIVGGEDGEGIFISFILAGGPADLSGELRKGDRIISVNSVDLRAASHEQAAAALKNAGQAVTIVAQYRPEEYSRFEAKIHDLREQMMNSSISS
LNX1_3, Q8TBB1, sequence (Q8TBB1 500-596): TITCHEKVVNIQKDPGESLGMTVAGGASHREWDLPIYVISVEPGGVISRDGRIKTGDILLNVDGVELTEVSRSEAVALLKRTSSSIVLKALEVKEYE
Inadl_6, Q8NI35, sequence (Q8NI35 1058-1167): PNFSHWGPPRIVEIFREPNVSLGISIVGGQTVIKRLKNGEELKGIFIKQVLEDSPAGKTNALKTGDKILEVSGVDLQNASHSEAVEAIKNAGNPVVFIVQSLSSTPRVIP
MAGI2_3, Q86UL8, sequence (Q86UL8 600-682): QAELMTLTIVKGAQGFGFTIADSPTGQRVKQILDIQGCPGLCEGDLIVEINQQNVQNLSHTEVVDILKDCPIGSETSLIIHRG

RLQRRRETQV [HPV18-E6_-2P, P06463] was tested, and the pKd (PTPN3, P26045; [1]) was “below the threshold”, the pKd (GRIP2_4, Q9C0E4; [1]) was “below the threshold” and the pKd (MAGI2_5, Q86UL8; [1]) was “below the threshold”. For the same binder, the pKd (SNTG1, Q9NSN8; [1]) was “below the threshold”, the pKd (NHERF3_3, Q5T2W1; [1]) was “below the threshold” and the pKd (NHERF3_4, Q5T2W1; [1]) was “below the threshold”. The pKd (Inadl_6, Q8NI35; [1]) was “below the threshold”, the pKd (FRMPD1, Q5SYB0; [1]) was “below the threshold” and the pKd (ARHGEF12, Q9NZN5-2; [1]) was “below the threshold”. The pKd (LNX1_3, Q8TBB1; [1]) was “below the threshold”, the pKd (DLG1_3, Q12959; [1]) was “below the threshold” and the pKd (MAGI2_3, Q86UL8; [1]) was “below the threshold”. The pKd (GIPC2, Q8TF65; [1]) was “below the threshold”, the pKd (PICK1, Q9NRD5; [1]) was “below the threshold” and the pKd (PDZD2_2, O15018; [1]) was “below the threshold”. The pKd (MAGI2_4, Q86UL8; [1]) was “below the threshold”, the pKd (GRIP1_2, Q9Y3R0; [1]) was “below the threshold” and the pKd (HTRA4, P83105; [1]) was “below the threshold”. The pKd (SNTA1, Q13424; [1]) was “below the threshold”, the pKd (TJP3_3, O95049; [1]) was “below the threshold” and the pKd (Inadl_5, Q8NI35; [1]) was “below the threshold”. The pKd (HTRA1, Q92743; [1]) was “below the threshold”, the pKd (CARD11, Q9BXL7; [1]) was “below the threshold” and the pKd (LDB3, O75112; [1]) was “below the threshold”. The pKd (SIPA1L2, Q9P2F8; [1]) was “below the threshold”, the pKd (NHERF4_2, Q86UT5; [1]) was “below the threshold” and the pKd (SCRIB_2, Q14160; [1]) was “below the threshold”.

QPCFNKLFPL [LPXN, O60711] was tested, and the pKd (PTPN3, P26045; [2]) was “below the threshold”, the pKd (GRIP2_4, Q9C0E4; [2]) was “below the threshold” and the pKd (MAGI2_5, Q86UL8; [2]) was “below the threshold”. The pKd (SNTG1, Q9NSN8; [2]) was “below the threshold”, the pKd (NHERF3_3, Q5T2W1; [2]) was “below the threshold” and the pKd (NHERF3_4, Q5T2W1; [2]) was 3.73. For the same binder, the pKd (Inadl_6, Q8NI35; [2]) was “below the threshold”, the pKd (FRMPD1, Q5SYB0; [2]) was “below the threshold” and the pKd (ARHGEF12, Q9NZN5-2; [2]) was 3.56. For the same binder, the pKd (LNX1_3, Q8TBB1; [2]) was “below the threshold”, the pKd (DLG1_3, Q12959; [2]) was “below the threshold” and the pKd (MAGI2_3, Q86UL8; [2]) was “below the threshold”. For the same binder, the pKd (GIPC2, Q8TF65; [2]) was “below the threshold”, the pKd (PICK1, Q9NRD5; [2]) was “below the threshold” and the pKd (PDZD2_2, O15018; [2]) was “below the threshold”. For the same binder, the pKd (MAGI2_4, Q86UL8; [2]) was “below the threshold”, the pKd (GRIP1_2, Q9Y3R0; [2]) was “below the threshold” and the pKd (HTRA4, P83105; [2]) was 3.95. The pKd (SNTA1, Q13424; [2]) was “below the threshold”, the pKd (TJP3_3, O95049; [2]) was “below the threshold” and the pKd (Inadl_5, Q8NI35; [2]) was “below the threshold”. The pKd (HTRA1, Q92743; [2]) was “below the threshold”, the pKd (CARD11, Q9BXL7; [2]) was “below the threshold” and the pKd (LDB3, O75112; [2]) was “below the threshold”. The pKd (SIPA1L2, Q9P2F8; [2]) was “below the threshold”, the pKd (NHERF4_2, Q86UT5; [2]) was “below the threshold” and the pKd (SCRIB_2, Q14160; [2]) was “below the threshold”.
